# In patent US20230287118A1 (published 2023):
# Where a chain is given by its changes, count along the chain named.
# B1: anti-MCSP/anti-CD3 "(Fab)2-CrossFab" molecule with charge modifications in the MCSP binders ((Fab)2-XFab-LC007cv) (bispecific antibody)
# chain 1: EVQLQESGPGLVKPSQSLSLTCSVTGYSITSGYYWNWIRQFPGNKLEWMGYITYDGSNNYNPSLKNRISITRDTSKNQFFLKLNSVTTEDTATYYCADFDYWGQGTTLTVSSASTKGPSVFPLAPSSKSTSGGTAALGCLVEDYFPEPVTVSWNSGALTSGVHTFPAVLQSSGLYSLSSVVTVPSSSLGTQTYICNVNHKPSNTKVDEKVEPKSCDGGGGSGGGGSEVQLQESGPGLVKPSQSLSLTCSVTGYSITSGYYWNWIRQFPGNKLEWMGYITYDGSNNYNPSLKNRISITRDTSKNQFFLKLNSVTTEDTATYYCADFDYWGQGTTLTVSSASTKGPSVFPLAPSSKSTSGGTAALGCLVEDYFPEPVTVSWNSGALTSGVHTFPAVLQSSGLYSLSSVVTVPSSSLGTQTYICNVNHKPSNTKVDEKVEPKSCDGGGGSGGGGSDIQMTQSPSSLSASVGDRVTITCRASQDIRNYLNWYQQKPGKAPKLLIYYTSRLESGVPSRFSGSGSGTDYTLTISSLQPEDFATYYCQQGNTLPWTFGQGTKVEIKSSASTKGPSVFPLAPSSKSTSGGTAALGCLVKDYFPEPVTVSWNSGALTSGVHTFPAVLQSSGLYSLSSVVTVPSSSLGTQTYICNVNHKPSNTKVDKKVEPKSC
# chain 2: EVQLVESGGGLVQPGGSLRLSCAASGYSFTGYTMNWVRQAPGKGLEWVALINPYKGVSTYNQKFKDRFTISVDKSKNTAYLQMNSLRAEDTAVYYCARSGYYGDSDWYFDVWGQGTLVTVSSASVAAPSVFIFPPSDEQLKSGTASVVCLLNNFYPREAKVQWKVDNALQSGNSQESVTEQDSKDSTYSLSSTLTLSKADYEKHKVYACEVTHQGLSSPVTKSFNRGEC
# chain 3: DIVLTQSPSSLSASLGDRVTISCSASQGIRNYLNWYQQRPDGTVKLLIYYTSSLHSGVPSRFSGSGSGTDYSLTISNLEPEDIATYYCQQYSKLPWTFGGGTKLEIKRTVAAPSVFIFPPSDRKLKSGTASVVCLLNNFYPREAKVQWKVDNALQSGNSQESVTEQDSKDSTYSLSSTLTLSKADYEKHKVYACEVTHQGLSSPVTKSFNRGEC
# notes: The chains are one heavy chain, the anti-MCSP Fab light chain (twice); No Fc domain
# B2: anti-CD20/anti-CD3 TCB molecule B: "2+1 IgG CrossFab, inverted" with charge modifications (VH/VL exchange in CD3 binder, charge modification in CD20 binders) (bispecific antibody)
# heavy 1: not shown
# heavy 2: QVQLVQSGAEVKKPGSSVKVSCKASGYAFSYSWINWVRQAPGQGLEWMGRIFPGDGDTDYNGKFKGRVTITADKSTSTAYMELSSLRSEDTAVYYCARNVFDGYWLVYWGQGTLVTVSSASTKGPSVFPLAPSSKSTSGGTAALGCLVEDYFPEPVTVSWNSGALTSGVHTFPAVLQSSGLYSLSSVVTVPSSSLGTQTYICNVNHKPSNTKVDEKVEPKSCDKTHTCPPCPAPEAAGGPSVFLFPPKPKDTLMISRTPEVTCVVVDVSHEDPEVKFNWYVDGVEVHNAKTKPREEQYNSTYRVVSVLTVLHQDWLNGKEYKCKVSNKALGAPIEKTISKAKGQPREPQVCTLPPSRDELTKNQVSLSCAVKGFYPSDIAVEWESNGQPENNYKTTPPVLDSDGSFFLVSKLTVDKSRWQQGNVFSCSVMHEALHNHYTQKSLSLSP
# light 1: DIVMTQTPLSLPVTPGEPASISCRSSKSLLHSNGITYLYWYLQKPGQSPQLLIYQMSNLVSGVPDRFSGSGSGTDFTLKISRVEAEDVGVYYCAQNLELPYTFGGGTKVEIKRTVAAPSVFIFPPSDRKLKSGTASVVCLLNNFYPREAKVQWKVDNALQSGNSQESVTEQDSKDSTYSLSSTLTLSKADYEKHKVYACEVTHQGLSSPVTKSFNRGEC
# light 2: EVQLLESGGGLVQPGGSLRLSCAASGFTFSTYAMNWVRQAPGKGLEWVSRIRSKYNNYATYYADSVKGRFTISRDDSKNTLYLQMNSLRAEDTAVYYCVRHGNFGNSYVSWFAYWGQGTLVTVSSASVAAPSVFIFPPSDEQLKSGTASVVCLLNNFYPREAKVQWKVDNALQSGNSQESVTEQDSKDSTYSLSSTLTLSKADYEKHKVYACEVTHQGLSSPVTKSFNRGEC
# notes: Bivalent for CD20, monovalent for CD3; also called CD20 TCB; CD20 TCB_2+1_with charges, inverted
# Key:
# [1] = biological target: T1, human MCSP (melanoma-associated chondroitin sulfate proteoglycan, chondroitin sulfate proteoglycan 4) (human, UniProt Q6UVK1 30-2322); assay: cell-based or functional assay
# T1 sequence (Q6UVK1 30-2322): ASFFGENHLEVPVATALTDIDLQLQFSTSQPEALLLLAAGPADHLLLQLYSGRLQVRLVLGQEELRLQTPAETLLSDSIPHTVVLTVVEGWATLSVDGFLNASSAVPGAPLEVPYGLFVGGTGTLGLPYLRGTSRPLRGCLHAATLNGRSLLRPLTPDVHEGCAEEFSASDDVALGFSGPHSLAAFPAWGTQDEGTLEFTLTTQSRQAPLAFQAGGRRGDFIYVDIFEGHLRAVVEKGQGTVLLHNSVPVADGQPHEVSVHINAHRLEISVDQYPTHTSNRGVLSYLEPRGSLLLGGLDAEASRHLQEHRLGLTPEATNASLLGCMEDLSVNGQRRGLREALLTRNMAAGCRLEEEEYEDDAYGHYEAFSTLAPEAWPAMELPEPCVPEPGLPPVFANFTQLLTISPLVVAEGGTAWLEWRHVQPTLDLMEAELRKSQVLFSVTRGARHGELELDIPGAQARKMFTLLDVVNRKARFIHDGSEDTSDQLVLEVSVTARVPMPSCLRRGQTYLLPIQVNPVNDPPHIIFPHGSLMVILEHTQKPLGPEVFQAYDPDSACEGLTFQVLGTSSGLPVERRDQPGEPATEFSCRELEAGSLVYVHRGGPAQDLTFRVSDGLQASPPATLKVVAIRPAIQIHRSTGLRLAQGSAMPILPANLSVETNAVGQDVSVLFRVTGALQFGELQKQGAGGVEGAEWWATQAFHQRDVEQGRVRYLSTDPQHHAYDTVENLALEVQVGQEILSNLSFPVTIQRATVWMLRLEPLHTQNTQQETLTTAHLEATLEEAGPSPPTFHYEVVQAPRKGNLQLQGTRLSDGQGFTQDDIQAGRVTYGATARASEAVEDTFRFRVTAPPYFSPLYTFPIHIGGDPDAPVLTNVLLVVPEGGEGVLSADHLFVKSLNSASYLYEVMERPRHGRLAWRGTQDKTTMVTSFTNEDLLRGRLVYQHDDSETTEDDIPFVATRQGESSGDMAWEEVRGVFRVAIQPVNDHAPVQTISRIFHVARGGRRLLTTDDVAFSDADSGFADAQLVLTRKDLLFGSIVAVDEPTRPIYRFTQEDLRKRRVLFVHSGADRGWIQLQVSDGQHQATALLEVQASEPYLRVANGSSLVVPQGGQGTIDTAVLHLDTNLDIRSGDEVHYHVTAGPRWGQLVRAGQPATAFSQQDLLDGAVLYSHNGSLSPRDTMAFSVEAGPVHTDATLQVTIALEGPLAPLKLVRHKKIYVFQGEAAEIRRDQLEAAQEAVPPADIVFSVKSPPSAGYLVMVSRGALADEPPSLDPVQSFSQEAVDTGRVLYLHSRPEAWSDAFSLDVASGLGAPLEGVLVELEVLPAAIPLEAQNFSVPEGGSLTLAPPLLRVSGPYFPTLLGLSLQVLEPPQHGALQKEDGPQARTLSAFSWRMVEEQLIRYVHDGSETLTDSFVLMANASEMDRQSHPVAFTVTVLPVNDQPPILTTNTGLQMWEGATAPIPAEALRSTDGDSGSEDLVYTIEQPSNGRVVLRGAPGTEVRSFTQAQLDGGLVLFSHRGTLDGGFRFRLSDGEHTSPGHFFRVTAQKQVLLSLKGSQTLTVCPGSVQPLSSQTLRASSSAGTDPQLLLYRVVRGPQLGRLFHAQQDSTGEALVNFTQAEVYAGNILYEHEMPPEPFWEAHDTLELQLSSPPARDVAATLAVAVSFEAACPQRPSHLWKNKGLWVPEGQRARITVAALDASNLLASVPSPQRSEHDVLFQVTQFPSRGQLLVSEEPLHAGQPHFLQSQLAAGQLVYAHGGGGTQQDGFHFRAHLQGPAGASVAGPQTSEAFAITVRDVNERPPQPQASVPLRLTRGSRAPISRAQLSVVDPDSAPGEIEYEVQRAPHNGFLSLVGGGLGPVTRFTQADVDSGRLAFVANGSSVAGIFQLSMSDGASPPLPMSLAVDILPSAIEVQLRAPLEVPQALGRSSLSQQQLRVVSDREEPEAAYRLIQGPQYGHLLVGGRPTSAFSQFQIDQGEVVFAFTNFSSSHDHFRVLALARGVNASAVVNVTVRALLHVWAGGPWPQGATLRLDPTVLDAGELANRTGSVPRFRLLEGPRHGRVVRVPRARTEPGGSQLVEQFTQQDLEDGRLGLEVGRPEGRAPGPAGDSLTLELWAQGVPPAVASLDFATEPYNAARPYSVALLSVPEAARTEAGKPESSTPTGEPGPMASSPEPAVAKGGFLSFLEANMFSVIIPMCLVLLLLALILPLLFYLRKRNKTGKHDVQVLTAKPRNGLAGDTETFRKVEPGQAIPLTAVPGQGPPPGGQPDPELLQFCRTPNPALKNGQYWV
# [2] = biological target: T1, human MCSP (melanoma-associated …); assay: flow cytometry on MCSP-expressing MV-3 cells
# human CD3 [3] = biological target: T2, human CD3 (human, UniProt P07766 23-207); assay: flow cytometry on Jurkat-NFAT cells
# T2 construct: In the assays it is the native CD3 complex on Jurkat or Jurkat-NFAT cells; also called CD3 epsilon
# human CD3 [4] = biological target: T2, human CD3; assay: flow cytometry on CD3-expressing Jurkat cells, PE anti-human Fc secondary antibody
# Procedure: (§1) The binding of the anti-CD3/anti-CD20 TCB antibody shown as molecule “B” above was tested on human CD20-expressing Diffuse Large-Cell B Cell Lymphoma (DLBCL) cell line (WSU DLCL2, 0.5-1×10⁶ CD20 binding sites) and CD3-expressing immortalized T lymphocyte line (Jurkat). Briefly, cells were harvested, counted, checked for viability and resuspended at 1.5×10⁶ cells/ml in FACS buffer (PBS 0.1% BSA).
# (§2) Binding curves and the EC50 values related to binding were calculated using GraphPadPrism5.
# human CD20 [5] = biological target: T3, human CD20 (human, UniProt P11836 1-297); assay: flow cytometry on CD20-expressing WSU DLCL2 cells, PE anti-human Fc secondary antibody
# T3 construct: whole, on cells
# T3 sequence (looked up): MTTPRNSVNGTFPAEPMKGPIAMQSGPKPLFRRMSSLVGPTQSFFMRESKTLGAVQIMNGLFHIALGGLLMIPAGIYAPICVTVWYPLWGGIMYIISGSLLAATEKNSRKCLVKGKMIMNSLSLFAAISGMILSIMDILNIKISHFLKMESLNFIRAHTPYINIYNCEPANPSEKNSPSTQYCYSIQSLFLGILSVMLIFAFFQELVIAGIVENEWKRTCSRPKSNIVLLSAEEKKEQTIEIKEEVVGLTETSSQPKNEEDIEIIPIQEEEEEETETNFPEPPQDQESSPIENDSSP
# Procedure: as §1, §2
# human CD20 [6] = biological target: T3, human CD20; assay: cell-based or functional assay
# human CD20 [7] = biological target: T3, human CD20; assay: cell-based or functional assay; remark: listed apart in the source
# cynomolgus monkey CD20 = biological target: T4, cynomolgus monkey CD20 (cynomolgus monkey, UniProt M4ZHZ6 1-297); assay: flow cytometry, AlexaFluor488-labelled TCB on CD20-expressing B cells among cynomolgus monkey PBMCs
# T4 construct: whole, on cells; also called cynomolgus CD20
# T4 sequence: T3 sequence (looked up) with S25P, F31L, T51A, A157V, K217R, N226S, I227V, T239V
# Procedure: (§3) The crossreactivity of the anti-CD3/anti-CD20 TCB antibody shown as molecule “B” above was evaluated by assessing binding to human and cynomolgus monkey CD20-expressing B cells and CD3-expressing CD4 and CD8 T cells. Briefly, heparinized human and cynomolgus monkey blood from healthy donors was used to isolate PBMCs by density centrifugation. Isolated PBMCs were counted, checked for viability and resuspended at 4×10⁶ cells/ml in FACS buffer (100 μl PBS 0.1% BSA). 100 μl of cell suspension (containing 0.4×10⁶ cells) were plated into 96-well_U-bottom plate and centrifuged (420×g, 4 min). After removal of the supernatants, PBMCs were incubated for 30 min at 4° C. with increasing concentrations of the CD20 TCB-AlexaFlour488 (200 pM-200 nM), washed twice with cold PBS 0.1% BSA, re-incubated for further 30 min at 4° C. with human/cynomolgus cross-reactive antibodies: anti-CD19 (in house, clone 8B8)-AlexaFluor647, anti-CD4 (BD, #552838, clone L200)-PerCPCy5.5 and anti-CD8 (BD, #555367, clone RPA-T8)-PE.
# human CD20 [8] = biological target: T3, human CD20; assay: flow cytometry, AlexaFluor488-labelled TCB on CD20-expressing B cells among human PBMCs
# Procedure: as §3
# human CD20 [9] = biological target: T3, human CD20; assay: cell-based or functional assay; remark: listed apart in the source
# human CD20 [10] = biological target: T3, human CD20; assay: cell-based or functional assay; remark: listed apart in the source
# human CD3 [11] = biological target: T2, human CD3; assay: cell-based or functional assay
Binder,"EC50 of tumor cell lysis (LDH release), MV-3 cells + human PBMCs, 24 h [1] [pM]","EC50 of tumor cell lysis (LDH release), MV-3 cells + human PBMCs, 48 h [1] [pM]",EC50 [2] [nM],binding result (human CD3 [3]),EC50 (human CD3 [4]) [nM],EC50 (human CD20 [5]) [nM],"EC50 of tumor cell lysis (LDH release), Z138 cells + human PBMCs, 21-24 h, panel A (human CD20 [6]) [pM]","EC50 of tumor cell lysis (LDH release), Z138 cells + human PBMCs, 21-24 h, panel B (human CD20 [6]) [pM]","EC50 24 h of tumor lysis, Ocly-18 cells (human CD20 [7]) [pM]","EC50 24 h of tumor lysis, SU-DHL-5 cells (human CD20 [7]) [pM]","EC50 24 h of tumor lysis, SU-DHL-8 cells (human CD20 [7]) [pM]","EC50 24 h of tumor lysis, U2932 cells (human CD20 [7]) [pM]",EC50 (cynomolgus monkey CD20) [nM],EC50 (human CD20 [8]) [nM],"EC50 24 h of CD4 T cell activation, Z138 cells (average of 3 donors) (human CD20 [9]) [pM]","EC50 24 h of CD8 T cell activation, Z138 cells (average of 3 donors) (human CD20 [9]) [pM]","EC50 24 h of tumor lysis, Z138 cells (average of 3 donors) (human CD20 [9]) [pM]",EC50 24 h of B cell depletion in normal human whole blood (human CD20 [10]) [pM],"EC50 of CD3 activation, Jurkat-NFAT reporter cells co-cultured with Z138 cells (luminescence, 6 h) (human CD3 [11]) [pM]"
B1,2.8,8.6,2.3,binds,,,,,,,,,,,,,,,
B2,,,,,~12.5,0.98,2.18,0.96,0.3,1.2,0.5,0.9,3.3,4.8,1.2,2.2,1.6,13.2,29
